US20140348862

These binders were tested against HLA-B*3501 (human), P01889 (assay: competition, FACS 4C). Details: modification not given.

Binder EPILCPCFM [PRAME 499-507] has an IC50 of less than 1000 nM.

What follows are binders tested against HLA-B7 (human), P01889 (assay: competition, FACS 4C). Details: modification not given.

Work on RPRRWKLQVL [PRAME 113-122] yielded an IC50 of less than 1000 nM.

Target: HLA-B*3501 (human), P01889
Assay: competition, FACS 4C
Details: modification not given
Remark: another data set of the same source

Going from FPPLFMAAF [PRAME 53-61] to SPYLGQMINL [PRAME 253-262], the IC50 rises from less than 1000 nM to 1980 nM. The first is the more potent here.

Going from EPILCPCFM [PRAME 499-507] to LPRELFPPLF [PRAME 48-57], the IC50 rises from 320 nM to 1580 nM (4.9-fold). The first is the more potent here.

Compared with QPFIPVEVL [PRAME 170-178], LPRELFPPL [PRAME 48-56] is lower in IC50: 2830 nM for the first, less than 1000 nM for the second.

Going from IPVEVLVDL [PRAME 173-181] to LPTLAKFSPY [PRAME 246-255], the IC50 falls from 2240 nM to less than 1000 nM. The second is the more potent here.

With GACDELFSY [PRAME 186-194] the IC50 was 2600 nM.

Target: HLA-B*3501 (human), P01889
Assay: competition, FACS 4C
Details: modification not given
Remark: another data set of the same source

LPTLAKFSPY [PRAME 246-255] gave an IC50 of 110 nM.
